According to US20150203575A1 (Genentech, published 2015):
One block for each binder: values may come before it.

Experiments:
MAG expressed on cells = target: T1, MAG expressed on cells (human, UniProt P20916 20-626); test: flow cytometry, transfected 293T cells, 2 µg/ml
T1 construct: Clone of the Origene human cDNA library; also called Myelin associated glycoprotein; SIGLEC4A
T1 sequence: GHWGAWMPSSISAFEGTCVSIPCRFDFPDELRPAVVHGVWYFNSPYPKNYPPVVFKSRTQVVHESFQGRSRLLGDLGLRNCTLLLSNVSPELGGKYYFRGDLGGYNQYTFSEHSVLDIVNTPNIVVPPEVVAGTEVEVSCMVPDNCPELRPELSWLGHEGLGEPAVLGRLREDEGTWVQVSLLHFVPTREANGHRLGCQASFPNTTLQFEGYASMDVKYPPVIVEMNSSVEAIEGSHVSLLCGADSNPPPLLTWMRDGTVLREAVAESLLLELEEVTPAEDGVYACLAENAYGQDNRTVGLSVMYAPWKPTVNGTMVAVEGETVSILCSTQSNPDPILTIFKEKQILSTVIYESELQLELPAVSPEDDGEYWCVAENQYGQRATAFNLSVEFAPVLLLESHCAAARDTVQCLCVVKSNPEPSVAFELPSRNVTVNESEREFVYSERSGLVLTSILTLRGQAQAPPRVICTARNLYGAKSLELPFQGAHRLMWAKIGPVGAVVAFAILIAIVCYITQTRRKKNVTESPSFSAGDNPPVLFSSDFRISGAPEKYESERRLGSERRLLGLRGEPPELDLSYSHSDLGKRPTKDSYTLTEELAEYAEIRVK

BR3 expressed on cells = target: T2, BR3 expressed on cells (human, UniProt Q96RJ3 1-184); test: flow cytometry, transfected 293T cells, 50 µg/ml
T2 construct: Clone of the Origene human cDNA library
T2 sequence: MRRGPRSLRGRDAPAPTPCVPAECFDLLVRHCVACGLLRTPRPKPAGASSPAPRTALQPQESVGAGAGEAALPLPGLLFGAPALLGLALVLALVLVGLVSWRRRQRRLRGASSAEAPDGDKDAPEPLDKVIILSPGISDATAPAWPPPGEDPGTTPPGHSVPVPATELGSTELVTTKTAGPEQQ

[1] = target: T3, IL-2Ra expressed on cells (human, UniProt P01589 22-272); test: flow cytometry, transfected 293T cells, 50 µg/ml
T3 construct: Clone of the Origene human cDNA library; also called Interleukin 2 receptor alpha
T3 sequence: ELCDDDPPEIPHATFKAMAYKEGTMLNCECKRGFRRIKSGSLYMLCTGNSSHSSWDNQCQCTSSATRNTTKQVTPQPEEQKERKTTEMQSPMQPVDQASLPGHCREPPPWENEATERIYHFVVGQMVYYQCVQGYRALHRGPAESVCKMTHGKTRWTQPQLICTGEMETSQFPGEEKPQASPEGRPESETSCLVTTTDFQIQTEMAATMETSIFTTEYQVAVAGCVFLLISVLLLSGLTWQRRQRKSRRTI

PSS8 expressed on cells = target: T4, PSS8 expressed on cells (human, UniProt Q16651 30-343); test: flow cytometry, transfected 293T cells, 50 µg/ml
T4 construct: Clone of the Origene human cDNA library; also called Protease serine 8; prostasin
T4 sequence (Q16651 30-343 limits assumed): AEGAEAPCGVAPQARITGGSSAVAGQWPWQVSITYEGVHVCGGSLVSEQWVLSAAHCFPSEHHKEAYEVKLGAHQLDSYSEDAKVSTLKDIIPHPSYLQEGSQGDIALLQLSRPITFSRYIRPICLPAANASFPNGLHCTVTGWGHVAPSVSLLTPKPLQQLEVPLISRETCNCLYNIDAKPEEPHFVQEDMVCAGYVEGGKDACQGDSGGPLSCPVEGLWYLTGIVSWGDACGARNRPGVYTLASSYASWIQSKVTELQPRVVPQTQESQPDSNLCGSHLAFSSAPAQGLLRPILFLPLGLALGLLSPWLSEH

[2] = target: T5, human COLEC12 expressed on cells (human, UniProt Q5KU26 1-742); test: AP staining of transfected COS7 cells with AP fusion supernatant
T5 construct: also called hCOLEC12; C-terminal his tagged hCOLEC12
T5 sequence (Q5KU26 whole entry S522P/G606S, the tested form may be a part): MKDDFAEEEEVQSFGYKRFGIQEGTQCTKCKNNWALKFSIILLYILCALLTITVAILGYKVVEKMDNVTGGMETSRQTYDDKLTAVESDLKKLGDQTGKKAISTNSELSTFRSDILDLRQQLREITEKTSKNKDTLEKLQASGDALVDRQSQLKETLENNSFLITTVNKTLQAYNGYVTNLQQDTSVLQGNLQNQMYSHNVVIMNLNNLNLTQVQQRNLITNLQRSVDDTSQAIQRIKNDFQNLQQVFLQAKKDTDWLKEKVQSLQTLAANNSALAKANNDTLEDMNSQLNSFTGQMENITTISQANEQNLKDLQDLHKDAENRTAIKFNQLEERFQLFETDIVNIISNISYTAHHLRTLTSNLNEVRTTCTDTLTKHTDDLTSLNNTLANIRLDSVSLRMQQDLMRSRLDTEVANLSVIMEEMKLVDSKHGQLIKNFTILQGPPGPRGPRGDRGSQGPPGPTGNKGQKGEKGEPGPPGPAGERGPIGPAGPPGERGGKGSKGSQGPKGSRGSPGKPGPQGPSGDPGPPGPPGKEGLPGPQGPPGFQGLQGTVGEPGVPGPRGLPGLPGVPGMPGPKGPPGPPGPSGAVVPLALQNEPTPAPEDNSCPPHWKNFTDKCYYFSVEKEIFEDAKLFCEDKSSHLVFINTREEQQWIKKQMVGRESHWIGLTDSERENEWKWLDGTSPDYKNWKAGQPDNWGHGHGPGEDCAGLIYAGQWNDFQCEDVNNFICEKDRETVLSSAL
Method: (§1) 2931 cells were transfected with PILRα-AP-pRK5 constructs and Fugene 6 Transfection Reagent (Roche) according to the manufacturer's instructions. Three days after transfection, supernatants were collected for screening. COS7 cells were plated in a 24-well format and transfected with 10 ul of Origene library DNA (Origene, human DNA library containing 20 k genes) per well with Fugene 6 Reagent. Two days later, cells were incubated with human or mouse PILRα-Ap supernatants for 45 min at room temperature (RT). Then cells were fixed with 4% PFA for 15 min at RT. After removing fixation buffer, cells were blocked with 100 mM Glycine in HBS (20 mM Hepes, PH7.2, 150 mM NaCl) for 15 min at RT. Cells were then rinsed and incubated in HBS for 90 min at 65° C. HBS was removed and Western Blue Substrate (Promega) was added and color was developed for 30 min to 1 hr.

[3] = target: T6, human NPDC1 expressed on cells (human, UniProt Q9NQX5 35-325); test: as above
T6 construct: also called hNPDC1; hNPCD1
T6 sequence: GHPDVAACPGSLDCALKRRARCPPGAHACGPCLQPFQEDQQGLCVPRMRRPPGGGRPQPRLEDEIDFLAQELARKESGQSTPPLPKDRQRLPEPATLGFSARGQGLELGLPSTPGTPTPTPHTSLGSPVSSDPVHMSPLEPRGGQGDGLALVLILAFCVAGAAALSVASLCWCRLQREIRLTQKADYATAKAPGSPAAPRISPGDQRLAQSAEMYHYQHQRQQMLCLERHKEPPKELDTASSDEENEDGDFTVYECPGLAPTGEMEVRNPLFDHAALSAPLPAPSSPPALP
Method: as §1

B1: mPILRα-Fc (Fc fusion)
chain: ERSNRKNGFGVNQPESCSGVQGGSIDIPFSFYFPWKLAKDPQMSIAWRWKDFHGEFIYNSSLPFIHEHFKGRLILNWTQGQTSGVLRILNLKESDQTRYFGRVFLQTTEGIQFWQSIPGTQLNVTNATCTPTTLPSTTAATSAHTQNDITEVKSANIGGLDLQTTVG
notes: also called mouse PILRα-Fc; WT mPILRα-Fc; not shown: Fc of mouse IgG2a (PILRα-mIgG2a, called PILRα-Fc)
% cells in lower right quadrant (MAG expressed on cells): 0.039%
% cells in lower right quadrant (BR3 expressed on cells): 53.3%
% cells in lower right quadrant [1]: 55.7%
% cells in lower right quadrant (PSS8 expressed on cells): 30.6%

binding result [2]: binds
binding result [3]: binds
B2: hPILRα-AP (other)
chain: QPSGSTGSGPSYLYGVTQPKHLSASMGGSVEIPFSFYYPWELATAPDVRISWRRGHFHRQSFYSTRPPSIHKDYVNRLFLNWTEGQKSGFLRISNLQKQDQSVYFCRVELDTRSSGRQQWQSIEGTKLSITQAVTTTTQRPSSMTTTWRLSSTTTTTGLRVTQGKRRSDSWHISLET
notes: Used as culture supernatant; also called human PILRα-AP; Alkaline phosphatase (AP)-tagged PILRα construct; not shown: C-terminal alkaline phosphatase (AP) tag
